How the values were obtained:
Assay in all cases: cell-based or functional assay
[1] = target: spike protein of SARS-CoV-2 δ strain on pseudovirus (SARS-CoV-2 (δ strain))
[2] = target: spike protein of SARS-CoV-2 B.1.1.482 strain on pseudovirus (SARS-CoV-2 (B.1.1.482 strain))
[3] = target: spike protein of SARS-CoV-2 β strain on pseudovirus (SARS-CoV-2 (β strain))
[4] = target: spike protein of SARS-CoV-2 α strain on pseudovirus (SARS-CoV-2 (α strain))
[5] = target: spike protein of SARS-CoV-2 γ strain on pseudovirus (SARS-CoV-2 (γ strain))

Binder | IC50 of pseudovirus infection (luciferase) [1] | IC50 of pseudovirus infection (luciferase) [2] | IC50 of pseudovirus infection (luciferase) [3] | IC50 of pseudovirus infection (luciferase) [4] | IC50 of pseudovirus infection (luciferase) [5]
Ab816 (antibody, V domains shown) VH: QVQLVQSGAEVKKPGESLMISCKASGYNFRNYWIAWVRQMPGKGLEWMGIIHPGDSDIRYRPSLQGHVTISADKSITTAYLQWGSLKASDTAMYYCTRITTDADSSGLFHYWGQGTLVTVSS VL: EIVLTQSPSTLSASVGDRVTITCRASQNIYTWLAWYQRKPGKAPKVLIYKASSLESGVPSRFSGSGSGTEFTLTISSLQPDDFATYYCQQYKSAWSFGQGTKVEIK | 0.0239 µg/mL | 0.0396 µg/mL | 0.0095 µg/mL | 0.0175 µg/mL | 0.0018 µg/mL
Ab354 (antibody, V domains shown) VH: QVQLVQSGAEVKKPGASVTVSCKASGFLFTGYYMHWVRQAPGQGLEWMGWINPNSGASNYTRKFQGRVTMTRDTSISATYMKLSRLTSDDTAVYYCARDLAFSMVRGALDYWGQGTLVTVSS VL: QLVLTQPPSASGSPGQSVTISCTGTSSDVGGYNYVSWYQHHPGKAPKLMIYEVSKRPSGVPDRFSGSKSGNTASLTVSGLQAEDEADYYCNSYAGNNNWVFGTGTKVTVL | 0.0715 µg/mL | 0.277 µg/mL |  | 0.0937 µg/mL | 
Ab803 (antibody, V domains shown) VH: EVQLVESGGGLVQPGRSLRVSCAASGFTFDDYAMHWVRQTPRKGLEWVAGISRNSAAIAYADSVKGRFTISRDNAKNSVFLQMNGLRADDTALYYCVKSPRYGWGSPDYSFDFWGRGTLVTVSS VL: DIQLTQSPSSLSASVGDRVTITCRASQNIGTYLNWYQQEPGKAPKLLIYAASSLQSGVPSRFSGSGSGTDFTLTISSLQPEDFATYCCQQSFTTPLTFGQGTKVEIK | 0.0639 µg/mL | 0.144 µg/mL | 0.0104 µg/mL | 0.402 µg/mL | 0.0106 µg/mL
Ab709TK (antibody, V domains shown) VH: QVQLVESGGGVVQPGKSLRLSCAASGFTFSSYAMHWVRLAPGKGLEWVAVISPDGKNKYYVDSVKGRSTISRDNSKNTLYLLMNSLRAEDTAVYYCATTQSLWFGQFYYIYGMDVWGQGTTVTVSS VL: QSVLTQPHSVSESPGKTITISCTGSSGSIASNYVQWYQQRPGSAPTTVIYEDTERPSGVPDRFSGSIDSSSNSASLTISGLKTEDEADYYCQSYDSNNVVFGGGTKLTVL | 0.0586 µg/mL | 0.172 µg/mL | 0.0058 µg/mL | 0.236 µg/mL | 0.0033 µg/mL
Ab830 (antibody, V domains shown) VH: QVQLVQSGAEVKKPGSSVKVSCKTSGGTFTNYTISWVRQAPGQGLEWMGRIIPIFDIVNYAQKFQGRVTITADKSTSTTYMELSSLRSEDTAVYYCARDGVLYDTSGYLYDAFDIWGQGTMVTVSS VL: DIQMTQSPSSLSASVGDRVTITCRASQGINNYLAWFQQKPGKAPKSLIYAASSLQSGVPPKFSGSGSGTDFTLTISSLQPEDFATYYCLHYNSYPWTFGQGTKVEIK | 0.0554 µg/mL | 0.0042 µg/mL | 0.0569 µg/mL | 0.0374 µg/mL | 0.0011 µg/mL
Ab188 (antibody, V domains shown) VH: EVQLVESGGGLVQPGGSLRLSCAASGFTFINYKMNWVRQAPGKGLEWVSYISSGSDAIYYADSVKGRFTISRDNAKNSLYLQMNSLRDEDTALYYCARGGGYNYGECMDVWGQGTTVTVSS VL: not shown | 0.139 µg/mL | 0.171 µg/mL | 0.0179 µg/mL | 0.248 µg/mL | 
Ab496 (antibody, V domains shown) VH: EVQLVQSGPEVKKPGTSVKVSCKASGFIFTNSAVQWVRQARGQRLEWIGWIVVGSGNPNYAQKFQERVTITRDRSTSTAYMELSSLTSEDTAVYYCAAFPYYYDNSGSGPWGQGTLVTVSS VL: DIQLTQSPSSLSASVGDRVTITCQASQDIRNNLNWYQQIPGKAPKLLIYDASNLETGVPSRFSGSASGTDFTFTISSLQPEDVATYYCQQYANLPPFTFGPGTKVDIK | 0.00984 µg/mL | 0.0506 µg/mL |  | 0.0169 µg/mL | 
Ab765 (antibody, V domains shown) VH: QVQLVESGGGVVQPGRSLRLSCAASGFTFSDYAIHWVRQAPGRGLEPVALISYDGNNKYYADSVKGRFTISRDNSKNVLYLQMNSLRADDTAVYYCARDAEGGWVAALDYWGQGTLVTVSS VL: QSALTQPRSVSGSPGQSVTISCTGTSSDVGGYNYVSWYQHHPGKAPKVMIYEVSKRPSGVPDRFSGSKSGTTASLTISGLQAEDEADYYCCSYAGTYPYVFGTGTKVTVL | 0.0269 µg/mL | 0.0117 µg/mL | 0.0045 µg/mL | 0.0166 µg/mL | 0.0144 µg/mL
Ab863 (antibody, V domains shown) VH: EVQLVQSGAEVKKPGASVKVSCQASGYTFITYYMHWVRQAPGQGLEWMGIINPDGGSISYAQKFQGRVTMTRDTSTSTVYMELSSLRSEDTAVYYCARGLSPTFSSSWFDNWGLGTLVTVSS VL: DVVMTQSPATLSVSPGERATLSCRASQSVSSNLAWYQQKPGQAPRLLIYGASTRDTGIPARFSGSGSGTEFTLTISSLQSEDFAVYFCQQYKNWLLTFGGGTKVEIK |  |  |  | 0.0301 µg/mL | 
Ab159 (antibody, V domains shown) VH: QVQLVESGGGLVKPGGSLRLSCAASGFTFNNAWMSWVRQAPGKGLEWVGRIKSKTDGGTTDYAAPVKGRFTFSRDDSKNTLYLQMSSLKTEDTALYYCTTADYDILTGTPASPYWGQGTLVTVSS VL: DIQMTQSPSSLSASVGDRVTITCRASQSITNYLNWYQQKPGKAPKFLIYAASSLQGGVPSRFRGSGSGTDFTLTISSLQPEDFATYYCQQTYSTLWTFGQGTKVEIK | 0.13 µg/mL | 0.0233 µg/mL | 0.00537 µg/mL | 0.0119 µg/mL | 0.00369 µg/mL
Ab712 (antibody, V domains shown) VH: QVQLVQSGSELKKPGASVKISCKASGYTFINHAINWVRQAPGQGLEWMGWINTNTGNPTYAPGFTGRFVFSLDTSVSTAYLQISSLKAEDTAVYYCARIPIRDYDYDGSGYYYFLDYWGQGTLVTVSS VL: SYELTQDPAVSVALGQTVRITCQGDSLRSSSASWYQQKPGQAPVLVIYGKTNRPSGIPDRFSGSSSGNTASLTITGAQAEDEADYYCNSRDNSGNHPVVFGGGTKLTVL | 0.0799 µg/mL | 0.0164 µg/mL | 0.0077 µg/mL | 0.103 µg/mL | 0.0022 µg/mL
Ab847 (antibody, V domains shown) VH: EVQLVQSGAEVKKPGASVKVSCKASGYTFTSYDIIWVRQATGQGLEWMGWMDPSRGTTGYAQTFQGRVTMTRDTSISTAYLELNSLTSEDTAVYYCVAHIVVLDRWFDPWGQGTLVTVSS VL: DIVMTQSPSSLSASVGDRVTITCQASQDIGNFLNWCQQKPGQAPKVLIYGASNLETGVPSRFSGSGSGTDFTFTISSLQPEDIATYYCQHYDNFPPRFTFGQGTKLDIK | 0.0422 µg/mL | 0.0548 µg/mL | 0.0103 µg/mL | 0.0821 µg/mL | 0.0502 µg/mL
Ab326 (antibody, V domains shown) VH: EVQLVESGGGVVQPGRSLRLSCAASGFTFSHYPMHWVRQAPGRGLEWVAVISYDGSNQHYVDSVKGRFTISRDNSKNTLYLQMNSLRAEDTAVYFCASLITMIRGVPDYWGQGTLVTVSS VL: DIQMTQSPSSLSASVGDRVTITCRASQSISNYLNWYQQKPGKAPNLLIFAASSLQSGVPSRFSGSGSGTEFTLTISSLQPEDFAAYYCLQTYSTPRTFGQGTRLEIK | 0.0184 µg/mL |  |  | 0.0493 µg/mL | 
Ab864 (antibody, V domains shown) VH: EVQLVESGGGLVQPGRSLRLSCAASGFTFDDYAMHWVRQVPGKGLEWVSGISWNKGNIDYADSVKGRFTISRDNAKNSLYLQMNSLRPEDTGLYYCAKDCHYDSPGYFPNCLHSWGQGTLVTVSS VL: EIVMTQSPSSLSASVGDRVTITCRASQGINTYLAWYQQKPGKAPKLLIYTASTLQSGVPSRFSGSGSGTDFTLTISSLQPEDFATYYCQQVHSYPLTFGGGTKVEIK | 0.0172 µg/mL | 0.0234 µg/mL | 0.0044 µg/mL | 0.0098 µg/mL | 

— patent US20230348573A1 (KEIO UNIVERSITY, published 2023)
